Experimental data reported in PMC8136771, “The human tRNA-guanine transglycosylase displays promiscuous nucleobase preference but strict tRNA specificity”.

Target: His-hQTRT1 (catalytic subunit of human TGT);StrepII-hQTRT2 (noncatalytic subunit) (human;human, UniProt Q9BXR0;Q9H974 1-403;1-415, |)
Experiment: denaturing EMSA of covalent intermediate; 9-deazaguanine; RBT buffer: 50 mM Tris-HCl pH 7.5, 20 mM NaCl, 5 mM MgCl2, 2 mM DTT, 37 C, 1-1.5 h, with 9-deazaguanine (25-50 uM); capture-release with poly(U) and ArgSL competitors, urea and guanidine washes
Details: protein: recombinant;recombinant; tags: N-terminal His;N-terminal StrepII-SUMO; copies: 1;1; hairpin

His-hQTRT1 (catalytic subunit of human TGT);StrepII-hQTRT2 (noncatalytic subunit), sequence (Q9BXR0 whole entry, chain 1 of 2): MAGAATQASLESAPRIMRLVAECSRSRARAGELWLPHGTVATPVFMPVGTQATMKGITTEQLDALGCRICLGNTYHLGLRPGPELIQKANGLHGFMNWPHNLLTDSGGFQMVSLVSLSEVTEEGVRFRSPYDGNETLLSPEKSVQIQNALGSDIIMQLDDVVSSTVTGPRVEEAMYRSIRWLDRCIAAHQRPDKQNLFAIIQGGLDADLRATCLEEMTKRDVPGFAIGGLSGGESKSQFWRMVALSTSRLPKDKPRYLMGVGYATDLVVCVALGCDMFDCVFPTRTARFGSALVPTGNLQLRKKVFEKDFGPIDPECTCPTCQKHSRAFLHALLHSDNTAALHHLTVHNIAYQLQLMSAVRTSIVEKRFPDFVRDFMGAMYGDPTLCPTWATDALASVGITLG
His-hQTRT1 (catalytic subunit of human TGT);StrepII-hQTRT2 (noncatalytic subunit), sequence (Q9H974 whole entry, chain 2 of 2): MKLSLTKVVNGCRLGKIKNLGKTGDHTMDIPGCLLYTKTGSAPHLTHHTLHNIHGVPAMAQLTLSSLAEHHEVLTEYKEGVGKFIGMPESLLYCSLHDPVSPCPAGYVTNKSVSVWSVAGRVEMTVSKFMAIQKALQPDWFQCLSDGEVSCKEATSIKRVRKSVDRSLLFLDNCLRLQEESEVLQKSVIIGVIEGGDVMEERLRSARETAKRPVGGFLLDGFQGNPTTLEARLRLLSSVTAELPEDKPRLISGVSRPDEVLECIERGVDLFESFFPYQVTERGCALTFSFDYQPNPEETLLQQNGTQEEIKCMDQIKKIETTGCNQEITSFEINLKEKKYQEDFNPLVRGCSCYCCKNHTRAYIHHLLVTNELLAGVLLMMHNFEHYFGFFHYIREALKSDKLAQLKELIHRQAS

Binder | binding result
ACUGGCCUCCUAAGCCAGG (structured_RNA) [Arginyl anticodon stem loop (ArgSL)] | no binding
CCCCGCCUGUCACGCGGGA (structured_RNA) [Aspartyl anticodon stem loop (AspSL)] | binds
